Laboratory results as given in patent US12247072 (ASHER BIOTHERAPEUTICS, dated 2025).
Blank lines part the entries; values can stand above or below the binder they belong to.

How the values were obtained:
[1] = molecular target: T1, Human IL-21R (Biolegend, Catalog No. 773104) (human, UniProt Q9HBE5 20-232, limits assumed); assay: SPR, 37 C;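 as to Kd: fc fusion proteins captured on an anti-human IgG Fc Biacore surface, 10 min dissociation, double-referenced data fitted to a 1:1 Langmuir model with mass transport, triplicate runs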;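 as to koff: fc fusion proteins captured on an anti-human IgG Fc Biacore surface, 10 min dissociation, double-referenced data fitted to a 1:1 Langmuir model with mass transport, triplicate runs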;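 as to kon: fc fusion proteins captured on an anti-human IgG Fc Biacore surface, 10 min dissociation, double-referenced data fitted to a 1:1 Langmuir model with mass transport, triplicate runs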
T1 construct: Bought; also called human IL-21 receptor

[2] = molecular target: T1, Human IL-21R (Biolegend, Catalog No. …); assay: SPR, 37 C; remark: listed apart in the source
mouse CD8b = molecular target: T2, mouse CD8b (mouse, UniProt P10300 22-175, limits assumed); assay: not described
T2 sequence (looked up): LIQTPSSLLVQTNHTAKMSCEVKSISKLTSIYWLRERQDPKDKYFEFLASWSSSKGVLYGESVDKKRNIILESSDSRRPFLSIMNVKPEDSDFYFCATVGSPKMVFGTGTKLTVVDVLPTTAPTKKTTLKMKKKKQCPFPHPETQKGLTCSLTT

mouse CD8 = molecular target: T3, mouse CD8 (mouse, UniProt P01731 28-247; P10300 22-213); assay: not described
T3 construct: copies: 1 + 1

[3] = molecular target: Recombinant human IL-21R, extracellular domain fused to 8x Histidine tag (generated in house) (human, UniProt Q9HBE5 20-232); assay: SPR, 25 C
Sequence of Recombinant human IL-21R, extracellular domain fused to 8x Histidine tag (generated in house) (Q9HBE5 other isoform, or with tags, fused parts or gaps limits assumed): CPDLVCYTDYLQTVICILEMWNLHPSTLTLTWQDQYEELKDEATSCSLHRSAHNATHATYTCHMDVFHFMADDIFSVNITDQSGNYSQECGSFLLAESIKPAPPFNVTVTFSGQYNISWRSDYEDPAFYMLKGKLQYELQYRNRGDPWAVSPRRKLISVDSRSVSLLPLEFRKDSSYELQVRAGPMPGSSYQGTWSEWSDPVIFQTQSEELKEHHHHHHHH

T1 sequence (Q9HBE5 20-232 limits assumed): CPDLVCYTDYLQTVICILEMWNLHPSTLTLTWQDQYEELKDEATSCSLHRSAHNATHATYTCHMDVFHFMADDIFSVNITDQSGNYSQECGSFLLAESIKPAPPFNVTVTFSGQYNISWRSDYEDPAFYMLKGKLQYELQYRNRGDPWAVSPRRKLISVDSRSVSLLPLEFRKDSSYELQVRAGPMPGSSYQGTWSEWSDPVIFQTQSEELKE
T3 sequence (P01731 28-247 limits assumed, one chain of several): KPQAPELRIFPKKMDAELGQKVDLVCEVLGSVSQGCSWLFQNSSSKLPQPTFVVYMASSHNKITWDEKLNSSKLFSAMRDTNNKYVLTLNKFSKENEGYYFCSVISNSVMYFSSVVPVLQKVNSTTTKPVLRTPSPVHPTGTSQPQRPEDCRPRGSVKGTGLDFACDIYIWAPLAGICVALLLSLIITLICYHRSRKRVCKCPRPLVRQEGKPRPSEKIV

B2: xhCD8.1 (antibody, V domains shown)
VH: QVQLVQSGAEVKKPGSSVKVSCKASGGTFSSYAISWVRQAPGQGLEWMGGIIPGYATANYAQKFQGRVTITADESTSTAYMELSSLRSEDTAVYYCARDAAGIRLFADWGQGTLVTVSS
VL: DIQMTQSPSSLSASVGDRVTITCRASQSIYGALNWYQQKPGKAPKLLIYGASNLQSGVPSRFSGSGSGTDFTLTISSLQPEDFATYYCQSTYTAPWTFGGGTKVEIK
notes: Anti-human CD8 antibody; human IgG1/kappa; also called xhCD8v12; xCtrl (in mouse studies)
- binding result (mouse CD8b): no binding
- binding result (mouse CD8): no binding

B4: hIL21 v31.23, non-fusion, 8His-tagged (ligand)
chain: QGQDRHMIRMRQLIDIVDQLKNYVNDLVPEFLPAPEDVETNCEWSAFSCFQKAQLKSANTGNNERIINVSIKKLKQKPPGGEGGGGGGGEGGCPSCDSYEKKPPKEFLERFKSLLQKMIHQHLSSRTHGSEDSGGASHHHHHHHH
- Kd [3]: 6.06 µM

B5: hIL21 v31.51, non-fusion, 8His-tagged (ligand)
chain: QGQDRHMIGMRQLIDIVDQLKNYVNDLVPEFLPAPEDVETNCEWSAFSCFQKAQLKSANTGNNERIINVSIKKLKRKPPGGEGGGGGGGEGGCPSCDSYEKKPPKEFLERFKSLLQKMIHQHLSSRTHGSEDSGGASHHHHHHHH
- Kd [3]: 7.73 µM

The next lines start with the values.

- fold difference of IL-21R affinity against wild type IL-21 [1]: ≤ 2 fold
- Kd [2]: 0.094 nM
- koff [2]: 0.00113 s⁻¹
- kon [2]: 1.2e+07 M⁻¹ s⁻¹
B1: xhCD8.1-hIL21 v31 (other)
VH: QVQLVQSGAEVKKPGSSVKVSCKASGGTFSSYAISWVRQAPGQGLEWMGGIIPGYATANYAQKFQGRVTITADESTSTAYMELSSLRSEDTAVYYCARDAAGIRLFADWGQGTLVTVSS
VL: DIQMTQSPSSLSASVGDRVTITCRASQSIYGALNWYQQKPGKAPKLLIYGASNLQSGVPSRFSGSGSGTDFTLTISSLQPEDFATYYCQSTYTAPWTFGGGTKVEIK
chain: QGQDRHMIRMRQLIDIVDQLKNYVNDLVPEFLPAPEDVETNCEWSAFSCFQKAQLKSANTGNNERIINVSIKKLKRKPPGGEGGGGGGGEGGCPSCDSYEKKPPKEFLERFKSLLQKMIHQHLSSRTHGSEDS
notes: Human IgG1/kappa, knob-into-hole, L234A/L235A/G237A

- binding result (mouse CD8): no binding
B3: xhCD8v11 (antibody, V domains shown)
VH: EVQLVESGGGLVQPGGSLRLSCAASGFTFSSYAMSWVRQAPGKGLEWVSDITYAGGSTAYADSVKGRFTISRDNAKNSLYLQMNSLRAEDTAVYYCARSNAYAWDDALDIWGQGTLVTVSS
VL: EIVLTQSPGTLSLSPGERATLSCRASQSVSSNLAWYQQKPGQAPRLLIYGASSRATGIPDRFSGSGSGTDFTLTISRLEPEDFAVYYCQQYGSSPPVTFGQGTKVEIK
notes: Anti-human CD8 antibody; human IgG1/kappa
